Assay results as given in publication PMC9302846, “Three enigmatic BioH isoenzymes are programmed in the early stage of mycobacterial biotin synthesis, an attractive anti-TB drug target” (PLoS Pathogens, 2022).
One block for each molecule: values may come before it.

Legend:
[1] = target: Seleno-methionine (Se-Met) substituted BioH3 protein (Mycobacterium smegmatis MC2 155) (UniProt A0R6Y0); experiment: crystal structure; Se-substituted BioH3, sitting-drop vapor diffusion at 16°C; 20 mM citric acid, 80 mM Bis-Tris propane pH 8.8, 16% PEG3350; SAD; space group P2(1), six molecules per asymmetric unit
[2] = target: the molecule itself; experiment: SEC; Superdex 200 Increase column; protein dialyzed in 20 mM Tris-HCl (pH 8.0), 150 mM NaCl and concentrated to ~15 mg/ml

- stoichiometry N [1]: 2
Molecule: Seleno-methionine (Se-Met) substituted BioH3 protein (from UniProt A0R6Y0 1-282) (enzyme)

B1: BioH2 (MSMEG_1352) of M. smegmatis MC2 155, hexa-histidine-tagged (enzyme, Mycobacterium smegmatis MC2 155, UniProt A0QS51 1-305, looked up)
chain: MQTRTGLARAGDADHPIDLFYEDMGDPGDPAVLLIMGLGAQMLMWRTEFCEKLVDQGLRVIRFDNRDVGLSTKLSGQRVDSPLALRMARSFLGKRSPAVYTLEDMADDAAALLDHLEIDRAHIVGGSMGGMIAQVFASQHAARTETLGVIFSSNNQALLPPPGIRQLLSLITGPPADASRDAVLDNAVRLSRLNGSPAYPRSEEEIRAEAAELYDRAYYPAGIARHFAAILGSGSLRHHNERVTAPTVVIHGRADRLMPPSGGRAIANAIRGARMVLIDGMGHELPEPVWDEVIGELKTNFAVVG
notes: BioH2, product of MSMEG_1352 of Mycobacterium smegmatis MC2 155; source: E. coli BL21(DE3), pET28a, purified (nickel column, dialysis)
- binding result [2]: binds
